Results: patent US20150125421A1

Legend:
Test in all cases: cell-based or functional assay
[1] = molecular target: rat MHC class II RT1B (I-A) glycoproteins (rat)
[2] = molecular target: rat IL-2 receptor on cells (rat)
[3] = molecular target: rat IL-4 receptor on cells (rat)

## OX6 anti-I-A (RT1B) IgG1 mAb (antibody)
[1]
  [3H]thymidine incorporation of RsL.11 T cells with 100 nM cytokine/NAg in the presence of OX6: < 10000 cpm
  [3H]thymidine incorporation of RsL.11 T cells with 100 fM-10 nM cytokine/NAg in the presence of OX6: < 1000 cpm
  inhibition of the antigenic reactivity of IL4.4 (RsL.11 proliferation, irradiated splenic APC) (orders of magnitude): > 5
  inhibition of the response to GPMBP (RsL.11 proliferation, irradiated splenic APC): 100 fold

B1: IL2.7 (rat IL2/EK/GP73-87/6his fusion protein) (protein)
chain: APTSSPAKETQQHLEQLLLDLQVLLRGIDNYKNLKLPMMLTFKFYLPKQATELKHLQCLENELGALQRVLDLTQSKSFHLEDAGNFISNIRVTVVKLKGSENKFECQFDDEPATVVEFLRRWIAICQSIISTMTQGDDDDKGPQKSQRSQDENPVVHHHHHHH
[2]
  antigenic potency against GPMBP added with saturating IL-2 as a separate molecule: 100 fold
  inhibition by soluble IL-2 of the RsL.11 proliferative response to IL2.7 (irradiated splenic APC): 10 fold
  potency against GPMBP in T cell-mediated cytotoxic assay (R1-trans T-APC, irradiated RsL.11), IL-2 added 24 hours after initiation of culture: 1000 times
  potency against GPMBP in T cell-mediated cytotoxic assay (R1-trans T-APC, irradiated RsL.11), IL-2 added at the initiation of culture: 32 fold

B2: IL2Ekdel (rat IL2/GP73-87/6his fusion protein) (protein)
chain: APTSSPAKETQQHLEQLLLDLQVLLRGIDNYKNLKLPMMLTFKFYLPKQATELKHLQCLENELGALQRVLDLTQSKSFHLEDAGNFISNIRVTVVKLKGSENKFECQFDDEPATVVEFLRRWIAICQSIISTMTQPQKSQRSQDENPVVHHHHHHH
[2]
  lowest concentration fully active in MHCII-dependent T cell-mediated killing assay: 100 fM
  potency against GPMBP or DHFR-NAg in MHCII-dependent T cell-mediated killing assay (R1-trans T-APC) (orders of magnitude): > 5

B3: IL4Ekdel (rat IL4/GP73-87/6his fusion protein) (protein)
chain: CNDSPLREIINTLNQVTEKGTPCTEMFVPDVLTATRNTTENELICRASRVLRKFYFPRDVPPCLKNKSGVLGELRKLCRGVSGLNSLRSCTVNESTLTTLKDFLESLKSILRGKYLQSCTSMSPQKSQRSQDENPVVHHHHHHH
[3]
  antigenic potency against GPMBP (RsL.11 proliferation, irradiated splenic APC): > 1000 times
  potency against GPMBP in MHCII-dependent T cell-mediated killing assay (R1-trans T-APC): 1000 times

B4: IL4.4 (rat IL4/EK/GP73-87/6his fusion protein) (protein)
chain: CNDSPLREIINTLNQVTEKGTPCTEMFVPDVLTATRNTTENELICRASRVLRKFYFPRDVPPCLKNKSGVLGELRKLCRGVSGLNSLRSCTVNESTLTTLKDFLESLKSILRGKYLQSCTSMSGDDDDKGPQKSQRSQDENPVVHHHHHHH
[3]
  antigenic potency against GPMBP added with saturating IL-4 as a separate molecule: 100 fold
  antigenic potency against GPMBP, by antigen concentrations eliciting a half maximal response (RsL.11 proliferation, irradiated splenic APC): > 100 fold
  inhibition by soluble IL-4 of the RsL.11 proliferative response to IL4.4 (irradiated splenic APC): 10 fold
